The values below come from patent EP4640709A1 (CHIOME BIOSCIENCE INC., dated 2025).

The target of assay [1] is T1, human CX3CR1 (human, UniProt P49238 1-355).
T1 sequence: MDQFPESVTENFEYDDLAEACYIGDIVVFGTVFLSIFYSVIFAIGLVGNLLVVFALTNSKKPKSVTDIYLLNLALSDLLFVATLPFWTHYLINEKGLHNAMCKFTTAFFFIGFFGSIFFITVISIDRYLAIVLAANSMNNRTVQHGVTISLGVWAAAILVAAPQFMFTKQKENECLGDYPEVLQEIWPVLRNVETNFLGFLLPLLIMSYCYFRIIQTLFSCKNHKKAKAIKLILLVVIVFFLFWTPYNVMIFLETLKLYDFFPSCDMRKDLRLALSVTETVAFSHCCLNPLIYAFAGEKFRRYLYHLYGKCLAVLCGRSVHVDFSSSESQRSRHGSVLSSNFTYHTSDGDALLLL
Kind of assay: cell-based or functional assay.

For assay [2], the target named is T1, human CX3CR1. In words: binding to hCX3CR1-expressing Eurofins cells.
Assay [3] has as its target T2, rat CX3CR1 (rat, UniProt P35411 1-354).
T2 construct: whole, on cells; Expressed on Ba/F3 cells; also called rCX3CR1
T2 sequence (looked up): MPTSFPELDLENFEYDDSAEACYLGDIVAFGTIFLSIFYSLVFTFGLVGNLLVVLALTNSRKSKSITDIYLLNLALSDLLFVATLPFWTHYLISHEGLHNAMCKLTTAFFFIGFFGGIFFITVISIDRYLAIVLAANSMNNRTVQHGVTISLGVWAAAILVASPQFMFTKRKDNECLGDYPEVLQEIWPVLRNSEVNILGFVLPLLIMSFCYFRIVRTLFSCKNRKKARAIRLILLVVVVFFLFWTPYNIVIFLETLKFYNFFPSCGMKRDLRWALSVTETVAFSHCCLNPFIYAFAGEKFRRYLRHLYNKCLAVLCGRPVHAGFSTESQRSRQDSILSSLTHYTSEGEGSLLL
Kind of assay: flow cytometry, CX3CR1-expressing Ba/F3 cells. (In general: Flow cytometry measures light scatter and fluorescence of single cells or particles in a stream.)

In assay [4] the target is T3, mouse CX3CR1 (mouse, UniProt Q9Z0D9 1-354).
T3 construct: whole, on cells; Expressed on Ba/F3 cells; also called mCX3CR1
T3 sequence (looked up): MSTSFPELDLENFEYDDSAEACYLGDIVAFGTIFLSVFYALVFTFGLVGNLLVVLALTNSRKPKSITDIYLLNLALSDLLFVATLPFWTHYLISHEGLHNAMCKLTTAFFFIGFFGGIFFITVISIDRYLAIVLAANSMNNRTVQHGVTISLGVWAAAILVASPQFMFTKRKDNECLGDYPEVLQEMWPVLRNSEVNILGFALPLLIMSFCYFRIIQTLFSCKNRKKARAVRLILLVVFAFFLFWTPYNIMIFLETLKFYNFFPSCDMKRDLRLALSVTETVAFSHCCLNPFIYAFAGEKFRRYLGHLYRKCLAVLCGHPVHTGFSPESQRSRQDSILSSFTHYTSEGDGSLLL
Kind of assay: flow cytometry, CX3CR1-expressing Ba/F3 cells.

Assay [5] addresses T1, human CX3CR1. In words: flow cytometry, binding to hCX3CR1-expressing Ba/F3 cells.
Assay [6] has as its target T1, human CX3CR1. Kind of assay: cell-based or functional assay. This is another data set of the same source.
Assay [7] concerns the target T4, mCX3CR1-3 (chimeric CX3CR1).
T4 construct: Whole, on Ba/F3 cells
In words: flow cytometry, chimeric CX3CR1-expressing Ba/F3 cells.

For assay [8], the target named is T5, mCX3CR1-2 (chimeric CX3CR1).
T5 construct: Whole, on Ba/F3 cells
The assay is described as above.

The target in assay [9] is T6, mCX3CR1-4 (chimeric CX3CR1).
T6 construct: Whole, on Ba/F3 cells
The description is as above.

The target in assay [10] is T3, mouse CX3CR1. Described as above.
Assay [11] addresses T7, hCX3CR1-2 (chimeric CX3CR1).
T7 construct: Whole, on Ba/F3 cells
Kind of assay: flow cytometry, chimeric CX3CR1-expressing Ba/F3 cells, 200 nM, grade vs positive antibody (+++ >70%, ++ 40-70%, + 10-40%, - <10%).

Assay [12] has as its target T8, hCX3CR1-1 (chimeric CX3CR1).
T8 construct: Whole, on Ba/F3 cells
Described as above.

Assay [13] deals with T9, hCX3CR1-4 (chimeric CX3CR1).
T9 construct: Whole, on Ba/F3 cells
Described as above.

Assay [14] deals with T1, human CX3CR1. The description is as above.
The target of assay [15] is T10, hCX3CR1-3 (chimeric CX3CR1).
T10 construct: Whole, on Ba/F3 cells
The assay is described as above.

Assay [16] has as its target T11, mCX3CR1-1 (chimeric CX3CR1).
T11 construct: Whole, on Ba/F3 cells
The description is as above.

Assay [17] deals with T2, rat CX3CR1. Kind of assay: flow cytometry, CX3CR1-expressing Ba/F3 cells, relative to Synagis.
Assay [18] has as its target T3, mouse CX3CR1. Described as above.
Assay [19] deals with T1, human CX3CR1. Kind of assay: flow cytometry, EC50 on hCX3CR1-expressing Ba/F3 cells, against m1F8.
Assay [20] addresses T1, human CX3CR1. Kind of assay: cell-based or functional assay. The source holds these as a separate data set.
For assay [21], the target named is T6, mCX3CR1-4 (chimeric CX3CR1). Kind of assay: flow cytometry, chimeric CX3CR1-expressing Ba/F3 cells, 200 nM, grade vs positive antibody (+++ >70%, ++ 40-70%, + 10-40%, - <10%).

Substitutions are numbered along the chain they refer to. Read-outs that look alike come from different tables or passages of the source. Some results are limits rather than exact numbers.

B1: h1F8-2-1 (antibody, V domains shown)
VH: QVQLVQSGAEVKKPGSSVKVSCKASGFTFTNYWMQWIRQAPGQGLEWIGAIYPGSGESRYTRKFKGRATITADKSTSTAYMELSSLRSEDTAVYYCARWAGYSRNAAYWGQGTLVTVSS
VL: DIVMTQTPLSLPVTPGEPASISCRSRQSIVHSSGNTYLEWYLQKPGQSPQLLIYKVSNRFSGVPDRFSGSGSGTDFTLKISRVEAEDVGVYYCFQGSHIPPTFGGGTKVEIK
notes: Humanized antibody; also called humanized 1F8 antibody h1F8-2-1
By EC50 is commonly meant the concentration at which the effect is half-maximal. Higher therefore signals a less potent agent. For B1, in the assay with human CX3CR1 [1], the “Cell migration inhibitory activity (IC50, nM)” value turned out to be 2.02 nM. This molecule also yielded an EC50 in the assay with human CX3CR1 [2] of 4.42 nM.

B2: m1F8-1 antibody (antibody, V domains shown)
VH: QVQLQQSGAELARPGASVKLSCKASGFTFTNYWMQWIKQRPGQGLEWIGAIYPGSGESRYTRKFKGKATLTADKSSSTAYMQLNSLASEDSAVYYCARWAGYSRNAAYWGQGTLVTVSA
VL: B1 VL with I2V, V3L, T14S, P15L, E17D, P18Q, R26S, Q50K, V88L, V109L
notes: also called activity-enhanced m1F8 antibody
For the molecule B2, the binding result with rat CX3CR1 [3] and in the assay with mouse CX3CR1 [4] was “no binding (tested: <10% of positive antibody at 200 nM)” each time. In the assay with human CX3CR1 [5], this molecule returned an EC50 of 6.69 nM. Moreover, in the assay with human CX3CR1 [6], the “Cell migration inhibitory activity (IC50, nM)” value is 5.32 nM. Also, the “relative measured value (flow cytometry reactivity, MFI) compared to positive antibody at 200 nM” value (shortened to “relative measured value”) in assay [7] was < 10%; in assay [8] it was < 10%; in [9], < 10%; with mouse CX3CR1 [10], < 10%; in assay [11] it was > 70%; in assay [12], 40 to 70%. Moreover, the “relative measured value” value (in assay [13]; with human CX3CR1 [14]; in assay [15]; in assay [16]) was > 70% each time.

B3: h1F8-2-2 antibody (antibody, IgG1, V domains shown)
VH: B1 VH with R67K
VL: B1 VL
notes: Humanized antibody; also called humanized 1F8 antibody (h1F8-2-2)
As for B3, the binding result in the assay with rat CX3CR1 [17] and with mouse CX3CR1 [18] was “no binding” in each case. For the same molecule, the “Cell migration inhibitory activity (IC50, nM)” value with human CX3CR1 [1] came to 1.27 nM. Moreover, a half-maximal response with human CX3CR1 [2] (EC50) required 3.1 nM.

B4: h1F8-2-3 (antibody, V domains shown)
VH: B1 VH with I70L
VL: B1 VL
notes: Humanized antibody; also called humanized 1F8 antibody h1F8-2-3
In the case of B4, the “Cell migration inhibitory activity (IC50, nM)” value in the assay with human CX3CR1 [1] stood at 1.4 nM. In the assay with human CX3CR1 [2], the EC50 came out at 4.02 nM.

B5: h1F8-2-4 (antibody, V domains shown)
VH: B1 VH with A68V
VL: B1 VL
notes: Humanized antibody; also called humanized 1F8 antibody h1F8-2-4
Consider B5, for which the “Cell migration inhibitory activity (IC50, nM)” value with human CX3CR1 [1] stood at 2.61 nM. For the same molecule, the EC50 in the assay with human CX3CR1 [2] came out at 4.42 nM.

B6: m1F8-2 antibody (antibody, V domains shown)
VH: B2 VH
VL: B1 VL with I2V, V3L, T14S, P15L, E17D, P18Q, Q50K, V88L, V109L
notes: as for B2
For B6, the binding result with rat CX3CR1 [3] and with mouse CX3CR1 [4] was “no binding (tested: <10% of positive antibody at 200 nM)” throughout. In the assay with human CX3CR1 [5], this molecule gave an EC50 of 2.67 nM. In the assay with human CX3CR1 [6], the “Cell migration inhibitory activity (IC50, nM)” value stood at 2.96 nM. For the same molecule, the “relative measured value” value in [7] was < 10%; in assay [8] it was < 10%; in the assay with mouse CX3CR1 [10] it was < 10%; in assay [11], > 70%; in [12] it was 40 to 70%; in assay [13], > 70%. In addition, the “relative measured value” value in assay [21] was 10 to 40%; with human CX3CR1 [14], > 70%; in assay [15] it was > 70%; in assay [16], > 70%. Moreover, the “fold improvement in binding activity compared to the original m1F8 antibody” value in the assay with human CX3CR1 [19] is ≥ 70 fold. The “improvement in inhibitory activity against fractalkine-dependent cell migration compared to the original m1F8 antibody” value with human CX3CR1 [20] is ≥ 15 fold.
